Broadly, the stoichiometry N is the number of molecules, sites or subunits per partner or assembly.

For assay [1], the target named is FtsX‐His (full‐length pneumococcal FtsX with a His6 tag) (Streptococcus pneumoniae). The assay is described as follows: densitometry of Coomassie‐stained bands of purified nanodiscs; FtsX‐His reconstituted in MSPE3D1/soybean lipid nanodiscs, purified by Ni‐NTA and SEC; relative intensities of MSPE3D1 and FtsX‐His bands, assuming two MSPE3D1 per nanodisc.
The target is the same in assay [2]. Briefly: cross-linking; FtsX‐His and FtsE‐His together in detergent micelles with glutaraldehyde; data not shown.
Assay [3] shares this target. Briefly: cross-linking; FtsX‐His (5–10 μmol/L) with glutaraldehyde (0.5–2.0 mmol/L), 30–45 min, room temperature, 50 mmol/L HEPES pH 8.0, 200 mmol/L NaCl, 5% glycerol, 0.02% DDM, 0.02% C12E8; SDS‐PAGE, Coomassie.

The substance “FtsX‐His (full‐length pneumococcal FtsX with a His6 tag) (natural protein)” registered a FtsX‐His molecules per nanodisc (molecules per nanodisc) in assay [1] of 1.5. The stoichiometry N in assay [2] and in assay [3] was 2 in each case.

These data come from paper PMC5061712.
